Results taken from article PMC5633104 (The Journal of Biological Chemistry, 2017).

Legend:
[1] = molecular target: His-tagged β-catenin–WT, tyrosine-phosphorylated form (P–β-catenin) (UniProt P35222); assay: ELISA; called a pairwise binding assay, done as in refs. 19, 20; by the legends a β-catenin-coated 96-well microtiter plate with Jak3 added, optical density read; Kd by Hyperbol-fit (MicroCal Origin)
[2] = molecular target: Hif1α (UniProt Q16665); assay: co-IP and immunoblot; settings: reference: wild type, EGF + IL-2; sites Y30,Y64,Y86
[3] = molecular target: T1, Autophosphorylated GST-tagged Jak3-WT (P-Jak3-WT) (UniProt P52333 1-1124, autophosphorylated on tyrosine (sites not given)); assay: ELISA; called a pairwise binding assay, done as in refs. 19, 20; by the legends a β-catenin-coated 96-well microtiter plate with Jak3 added, optical density read; Kd by Hyperbol-fit (MicroCal Origin); settings: both partners purified
T1 construct: also called phosphorylated Jak3; source: E. coli BL-21, purified, autophosphorylated
T1 sequence (looked up): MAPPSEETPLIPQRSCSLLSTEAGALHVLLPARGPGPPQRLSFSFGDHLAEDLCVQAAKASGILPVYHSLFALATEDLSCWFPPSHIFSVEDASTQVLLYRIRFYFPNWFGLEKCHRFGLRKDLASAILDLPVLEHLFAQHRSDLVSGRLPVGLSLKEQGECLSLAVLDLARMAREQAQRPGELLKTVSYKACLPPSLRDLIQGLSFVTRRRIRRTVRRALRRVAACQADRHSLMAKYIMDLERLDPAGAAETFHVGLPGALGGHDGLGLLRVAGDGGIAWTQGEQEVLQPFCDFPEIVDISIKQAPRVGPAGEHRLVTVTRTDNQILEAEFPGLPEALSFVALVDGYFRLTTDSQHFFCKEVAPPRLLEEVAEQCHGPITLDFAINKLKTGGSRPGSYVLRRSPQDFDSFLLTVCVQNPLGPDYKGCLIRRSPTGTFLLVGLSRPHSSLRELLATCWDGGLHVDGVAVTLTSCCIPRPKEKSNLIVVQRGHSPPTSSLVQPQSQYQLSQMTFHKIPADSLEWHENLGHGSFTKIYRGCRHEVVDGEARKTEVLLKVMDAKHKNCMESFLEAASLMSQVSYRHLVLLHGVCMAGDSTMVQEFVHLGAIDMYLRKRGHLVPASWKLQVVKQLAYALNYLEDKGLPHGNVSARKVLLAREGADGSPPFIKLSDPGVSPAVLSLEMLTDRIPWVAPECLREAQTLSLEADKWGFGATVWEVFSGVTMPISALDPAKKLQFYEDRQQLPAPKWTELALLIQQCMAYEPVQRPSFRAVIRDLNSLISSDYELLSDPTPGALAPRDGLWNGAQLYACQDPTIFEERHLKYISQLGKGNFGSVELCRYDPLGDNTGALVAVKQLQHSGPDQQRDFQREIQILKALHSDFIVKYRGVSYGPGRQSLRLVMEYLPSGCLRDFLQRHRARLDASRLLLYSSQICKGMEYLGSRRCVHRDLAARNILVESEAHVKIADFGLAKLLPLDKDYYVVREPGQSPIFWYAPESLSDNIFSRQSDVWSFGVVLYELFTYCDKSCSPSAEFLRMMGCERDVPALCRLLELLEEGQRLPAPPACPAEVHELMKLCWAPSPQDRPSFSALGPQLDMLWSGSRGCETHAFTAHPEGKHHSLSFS

Jak3 with the kinase domain deleted (domain or fragment)
fold decrease of the interaction against Jak3-WT [1]: > 4 fold

β-catenin (from UniProt P35222) Y30F,Y64F,Y86F, EGF + IL-2
binding against the reference [2]: stronger

B1: His-tagged β-catenin–WT, tyrosine-phosphorylated form (P–β-catenin) (natural protein, UniProt P35222 1-781, looked up)
chain: MATQADLMELDMAMEPDRKAAVSHWQQQSYLDSGIHSGATTTAPSLSGKGNPEEEDVDTSQVLYEWEQGFSQSFTQEQVADIDGQYAMTRAQRVRAAMFPETLDEGMQIPSTQFDAAHPTNVQRLAEPSQMLKHAVVNLINYQDDAELATRAIPELTKLLNDEDQVVVNKAAVMVHQLSKKEASRHAIMRSPQMVSAIVRTMQNTNDVETARCTAGTLHNLSHHREGLLAIFKSGGIPALVKMLGSPVDSVLFYAITTLHNLLLHQEGAKMAVRLAGGLQKMVALLNKTNVKFLAITTDCLQILAYGNQESKLIILASGGPQALVNIMRTYTYEKLLWTTSRVLKVLSVCSSNKPAIVEAGGMQALGLHLTDPSQRLVQNCLWTLRNLSDAATKQEGMEGLLGTLVQLLGSDDINVVTCAAGILSNLTCNNYKNKMMVCQVGGIEALVRTVLRAGDREDITEPAICALRHLTSRHQEAEMAQNAVRLHYGLPVVVKLLHPPSHWPLIKATVGLIRNLALCPANHAPLREQGAIPRLVQLLVRAHQDTQRRTSMGGTQQQFVEGVRMEEIVEGCTGALHILARDVHNRIVIRGLNTIPLFVQLLYSPIENIQRVAAGVLCELAQDKEAAEAIEAEGATAPLTELLHSRNEGVATYAAAVLFRMSEDKPQDYKKRLSVELTSSLFRTEPMAWNETADLGLDIGAQGEPLGYRQDDPSYRSFHSGGYGQDALGMDPMMEHEMGGHHPGADYPVDGLPDLGHAQDLMDGLPPGDSNQLAWFDTDL
modifications: tyrosine-phosphorylated (made in TKX1; sites not stated)
notes: β-catenin, wild type, full-length cDNA; also called phosphorylated β-catenin; source: E. coli TKX1, purified
Kd [3]: 280 nM
